Experimental findings from patent publication US20040033229A1 (published 2004) are described below.

The target in the test is prostate specific membrane antigen (PSMA), full-length, on the cell surface (human, UniProt Q04609 1-750). Nature of the test: cell-based or functional assay.
Chain of prostate specific membrane antigen (PSMA), full-length, on the cell surface (Q04609 whole entry): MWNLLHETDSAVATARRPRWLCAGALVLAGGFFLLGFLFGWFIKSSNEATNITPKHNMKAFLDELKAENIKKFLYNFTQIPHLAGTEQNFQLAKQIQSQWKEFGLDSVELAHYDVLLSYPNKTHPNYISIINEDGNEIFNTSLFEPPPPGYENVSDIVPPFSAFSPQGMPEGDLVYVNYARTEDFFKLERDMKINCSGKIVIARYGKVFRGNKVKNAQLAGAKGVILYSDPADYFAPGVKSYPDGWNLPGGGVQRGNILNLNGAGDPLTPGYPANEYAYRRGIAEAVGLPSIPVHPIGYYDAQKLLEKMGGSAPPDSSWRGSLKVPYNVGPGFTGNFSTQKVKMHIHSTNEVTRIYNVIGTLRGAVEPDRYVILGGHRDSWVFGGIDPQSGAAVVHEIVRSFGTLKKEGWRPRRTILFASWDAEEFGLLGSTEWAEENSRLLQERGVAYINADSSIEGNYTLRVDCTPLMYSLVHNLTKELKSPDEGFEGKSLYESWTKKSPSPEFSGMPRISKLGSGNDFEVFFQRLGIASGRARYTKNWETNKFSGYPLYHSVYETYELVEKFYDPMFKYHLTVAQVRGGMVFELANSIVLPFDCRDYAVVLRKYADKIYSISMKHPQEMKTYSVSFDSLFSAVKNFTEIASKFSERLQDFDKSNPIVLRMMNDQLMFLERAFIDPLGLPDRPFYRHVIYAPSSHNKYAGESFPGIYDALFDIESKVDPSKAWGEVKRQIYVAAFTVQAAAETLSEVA

B1: 225Ac labeled mAb 026 (antibody, V domains shown)
VH: QVQLVESGGGVVQPGRSLRLSCAASGFTFSNYVMHWVRQAPGKGLEWVAIIWYDGSNKYYADSVKGRFTISRDNSKNTLYLQMNSLRAEDTAVYYCAGGYNWNYEYHYYGMDVWGQGTTVTVSS
VL: DIQMTQSPSSLSASVGDRVTITCRASQGITNYLAWFQQKPGKAPKSLIYAASSLQSGVPSKFSGSGSGTDFSLTISSLQPEDFATYYCQQYNSYPITFGQGTRLEIK
modifications: 225Ac-DOTA conjugate, sites not stated; 225Ac-DOTA conjugate, sites not stated ; 225Ac chelated by DOTA and conjugated to the antibody; sites not stated
Regarding B1, the “IC50 of cell survival (3H thymidine incorporation), C4-2 cells” value turned out to be 0.12 nCi/mL; the “IC50 of cell survival, C4-2 and LNCaP cells” value was < 1 nCi/mL; the “selectivity of killing, C4-2 against PC3” value is > 50 fold.
